Data set [1] has as its target T1, YojK (Bacillus subtilis, UniProt O31853).
T1 construct: codon-optimized synthetic gene in pET-21b(+), E. coli BL21(DE3), Ni-NTA and Superdex 200; M1-M405 described; two monomers per asymmetric unit
T1 sequence (O31853 1-405): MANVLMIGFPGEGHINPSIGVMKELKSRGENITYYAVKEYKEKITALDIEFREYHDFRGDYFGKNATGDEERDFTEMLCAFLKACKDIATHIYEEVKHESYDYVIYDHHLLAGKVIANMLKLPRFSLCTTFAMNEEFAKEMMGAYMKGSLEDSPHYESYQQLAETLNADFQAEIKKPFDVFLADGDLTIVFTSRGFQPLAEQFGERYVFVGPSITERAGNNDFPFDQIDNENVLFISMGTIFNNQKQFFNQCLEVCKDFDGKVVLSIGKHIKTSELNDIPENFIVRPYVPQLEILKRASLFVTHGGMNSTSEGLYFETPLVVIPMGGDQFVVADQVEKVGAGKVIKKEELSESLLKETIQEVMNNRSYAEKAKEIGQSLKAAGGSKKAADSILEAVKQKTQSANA
The experiment in a line: X-ray crystal structure, […] Å. The data set is classed as binding. The note with it: co-crystallised with 5 mM UDP, pH 8.0, 18°C; sugar donor site.

Substrate in data set [2]: C=C1C[C@@]23CC[C@H]4[C@@](C)(CCC[C@@]4(C)C(=O)O[C@@H]4O[C@H](CO)[C@@H](O)[C@H](O)[C@H]4O)[C@@H]2CC[C@]1(O[C@@H]1O[C@H](CO)[C@@H](O)[C@H](O[C@@H]2O[C@H](CO)[C@@H](O)[C@H](O)[C@H]2O)[C@H]1O[C@@H]1O[C@H](CO)[C@@H](O)[C@H](O)[C@H]1O)C3
Nature of the data set: purified protein. The note with it: 5 mM UDPG, 10 mM MnCl2, 50 mM Tris-HCl pH 8.0, 35°C, 20 min, Reb A 0.05-0.7 mM.

On to `O=c1ccn([C@@H]2O[C@H](COP(=O)(O)OP(=O)(O)O)[C@@H](O)[C@H]2O)c(=O)[nH]1` [UDP], for which the “X-ray crystal structure, 1.90 Å” value in data set [1] is reported as “we solved the crystal structure of YojK in complex with uridine diphosphate (UDP)”.

B1: YojK (Bacillus subtilis subsp. subtilis str. 168) (protein)
chain: MANVLMIGFPGEGHINPSIGVMKELKSRGENITYYAVKEYKEKITALDIEFREYHDFRGDYFGKNATGDEERDFTEMLCAFLKACKDIATHIYEEVKHESYDYVIYDHHLLAGKVIANMLKLPRFSLCTTFAMNEEFAKEMMGAYMKGSLEDSPHYESYQQLAETLNADFQAEIKKPFDVFLADGDLTIVFTSRGFQPLAEQFGERYVFVGPSITERAGNNDFPFDQIDNENVLFISMGTIFNNQKQFFNQCLEVCKDFDGKVVLSIGKHIKTSELNDIPENFIVRPYVPQLEILKRASLFVTHGGMNSTSEGLYFETPLVVIPMGGDQFVVADQVEKVGAGKVIKKEELSESLLKETIQEVMNNRSYAEKAKEIGQSLKAAGGSKKAADSILEAVKQKTQSANA
Consider B1, for which, in data set [2], the Km was 210.52 ± 11.70 µM, the kcat came to 0.018 s⁻¹ and the kcat/Km worked out at 85.5 M⁻¹ s⁻¹.

B2: YojK (Bacillus subtilis subsp. subtilis str. 168; G327N/I241T) (protein)
chain: MANVLMIGFPGEGHINPSIGVMKELKSRGENITYYAVKEYKEKITALDIEFREYHDFRGDYFGKNATGDEERDFTEMLCAFLKACKDIATHIYEEVKHESYDYVIYDHHLLAGKVIANMLKLPRFSLCTTFAMNEEFAKEMMGAYMKGSLEDSPHYESYQQLAETLNADFQAEIKKPFDVFLADGDLTIVFTSRGFQPLAEQFGERYVFVGPSITERAGNNDFPFDQIDNENVLFISMGTTFNNQKQFFNQCLEVCKDFDGKVVLSIGKHIKTSELNDIPENFIVRPYVPQLEILKRASLFVTHGGMNSTSEGLYFETPLVVIPMGNDQFVVADQVEKVGAGKVIKKEELSESLLKETIQEVMNNRSYAEKAKEIGQSLKAAGGSKKAADSILEAVKQKTQSANA
Turning to B2, in data set [2], the Km amounted to 193.07 ± 7.30 µM, the kcat was determined as 0.179 s⁻¹ and the kcat/Km was found to be 929 M⁻¹ s⁻¹.

B3: YojK (Bacillus subtilis subsp. subtilis str. 168; G327N) (protein)
chain: MANVLMIGFPGEGHINPSIGVMKELKSRGENITYYAVKEYKEKITALDIEFREYHDFRGDYFGKNATGDEERDFTEMLCAFLKACKDIATHIYEEVKHESYDYVIYDHHLLAGKVIANMLKLPRFSLCTTFAMNEEFAKEMMGAYMKGSLEDSPHYESYQQLAETLNADFQAEIKKPFDVFLADGDLTIVFTSRGFQPLAEQFGERYVFVGPSITERAGNNDFPFDQIDNENVLFISMGTIFNNQKQFFNQCLEVCKDFDGKVVLSIGKHIKTSELNDIPENFIVRPYVPQLEILKRASLFVTHGGMNSTSEGLYFETPLVVIPMGNDQFVVADQVEKVGAGKVIKKEELSESLLKETIQEVMNNRSYAEKAKEIGQSLKAAGGSKKAADSILEAVKQKTQSANA
As to B3, in data set [2], the Km was 176.23 ± 10.62 µM, the kcat was 0.0837 s⁻¹ and the kcat/Km stood at 475 M⁻¹ s⁻¹.

B4: YojK (Bacillus subtilis subsp. subtilis str. 168; G326F) (protein)
chain: MANVLMIGFPGEGHINPSIGVMKELKSRGENITYYAVKEYKEKITALDIEFREYHDFRGDYFGKNATGDEERDFTEMLCAFLKACKDIATHIYEEVKHESYDYVIYDHHLLAGKVIANMLKLPRFSLCTTFAMNEEFAKEMMGAYMKGSLEDSPHYESYQQLAETLNADFQAEIKKPFDVFLADGDLTIVFTSRGFQPLAEQFGERYVFVGPSITERAGNNDFPFDQIDNENVLFISMGTIFNNQKQFFNQCLEVCKDFDGKVVLSIGKHIKTSELNDIPENFIVRPYVPQLEILKRASLFVTHGGMNSTSEGLYFETPLVVIPMFGDQFVVADQVEKVGAGKVIKKEELSESLLKETIQEVMNNRSYAEKAKEIGQSLKAAGGSKKAADSILEAVKQKTQSANA
For B4, in data set [2], the Km turned out to be 290.16 ± 8.34 µM, the kcat was 0.154 s⁻¹ and the kcat/Km came to 528 M⁻¹ s⁻¹.

B5: YojK (Bacillus subtilis subsp. subtilis str. 168; I241T) (protein)
chain: MANVLMIGFPGEGHINPSIGVMKELKSRGENITYYAVKEYKEKITALDIEFREYHDFRGDYFGKNATGDEERDFTEMLCAFLKACKDIATHIYEEVKHESYDYVIYDHHLLAGKVIANMLKLPRFSLCTTFAMNEEFAKEMMGAYMKGSLEDSPHYESYQQLAETLNADFQAEIKKPFDVFLADGDLTIVFTSRGFQPLAEQFGERYVFVGPSITERAGNNDFPFDQIDNENVLFISMGTTFNNQKQFFNQCLEVCKDFDGKVVLSIGKHIKTSELNDIPENFIVRPYVPQLEILKRASLFVTHGGMNSTSEGLYFETPLVVIPMGGDQFVVADQVEKVGAGKVIKKEELSESLLKETIQEVMNNRSYAEKAKEIGQSLKAAGGSKKAADSILEAVKQKTQSANA
On to B5, for which, in data set [2], the Km was determined as 197.74 ± 9.25 µM, the kcat was 0.0223 s⁻¹ and the kcat/Km is 113 M⁻¹ s⁻¹.

B6: YojK (Bacillus subtilis subsp. subtilis str. 168; G326F/I241T) (protein)
chain: MANVLMIGFPGEGHINPSIGVMKELKSRGENITYYAVKEYKEKITALDIEFREYHDFRGDYFGKNATGDEERDFTEMLCAFLKACKDIATHIYEEVKHESYDYVIYDHHLLAGKVIANMLKLPRFSLCTTFAMNEEFAKEMMGAYMKGSLEDSPHYESYQQLAETLNADFQAEIKKPFDVFLADGDLTIVFTSRGFQPLAEQFGERYVFVGPSITERAGNNDFPFDQIDNENVLFISMGTTFNNQKQFFNQCLEVCKDFDGKVVLSIGKHIKTSELNDIPENFIVRPYVPQLEILKRASLFVTHGGMNSTSEGLYFETPLVVIPMFGDQFVVADQVEKVGAGKVIKKEELSESLLKETIQEVMNNRSYAEKAKEIGQSLKAAGGSKKAADSILEAVKQKTQSANA
Consider B6, for which, in data set [2], the Km came to 347.63 ± 24.23 µM, the kcat amounted to 0.258 s⁻¹ and the kcat/Km was determined as 741 M⁻¹ s⁻¹.

Source of the values: PMC9452701, “Highly efficient production of rebaudioside D enabled by structure-guided engineering of bacterial glycosyltransferase YojK” (Frontiers in Bioengineering and Biotechnology, 2022).
